Measured values taken from patent publication US20200199207A1 (MABYLON, published 2020).

Experiments:
nAra h 2 = biological target: T1, nAra h 2 (peanut, UniProt Q6PSU2 22-172); experiment: ELISA, antigen-coated plate
T1 construct: Bought natural allergen; also called naturally extracted Ara h 2
T1 sequence (looked up): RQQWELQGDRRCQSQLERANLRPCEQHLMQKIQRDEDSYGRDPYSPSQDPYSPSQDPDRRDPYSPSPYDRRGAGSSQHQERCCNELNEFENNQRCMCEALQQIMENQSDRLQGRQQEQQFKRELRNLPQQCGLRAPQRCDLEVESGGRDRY
Protocol: (§1) EC50 binding of exemplary anti-peanut antibodies of the present invention to peanut allergens or peanut extract, was determined by ELISA. Serial dilutions of MAbs (from 1000 ng/ml down to 0.0169 ng/ml) were incubated for 2 hours with antigen-coated plates (coating overnight at 4° C. or 1 h at 37° C. with 1 μg/ml antigen in PBS, followed by wash out and blocking with 2% BSA in PBS). The plates were subsequently washed and binding of MAbs was detected with anti-human HRP-conjugated Fc-gamma-specific secondary antibody (Jackson ImmunoResearch, West Grove, Pa., USA). Concentrations of MAb resulting in half of maximal binding to respective antigens (EC50, ng/ml) were calculated using GraphPad Prism 5 software on sigmoidal dose-response curves (variable slope, 4 parameters) obtained by plotting the log of the concentration versus OD450 nm measurements; for the results see FIG. 3 and table 2.

nAra h 1 = biological target: T2, nAra h 1 (peanut, UniProt P43238 85-626); experiment: ELISA, antigen-coated plate
T2 construct: Bought natural allergen; also called naturally extracted Ara h 1
T2 sequence (looked up): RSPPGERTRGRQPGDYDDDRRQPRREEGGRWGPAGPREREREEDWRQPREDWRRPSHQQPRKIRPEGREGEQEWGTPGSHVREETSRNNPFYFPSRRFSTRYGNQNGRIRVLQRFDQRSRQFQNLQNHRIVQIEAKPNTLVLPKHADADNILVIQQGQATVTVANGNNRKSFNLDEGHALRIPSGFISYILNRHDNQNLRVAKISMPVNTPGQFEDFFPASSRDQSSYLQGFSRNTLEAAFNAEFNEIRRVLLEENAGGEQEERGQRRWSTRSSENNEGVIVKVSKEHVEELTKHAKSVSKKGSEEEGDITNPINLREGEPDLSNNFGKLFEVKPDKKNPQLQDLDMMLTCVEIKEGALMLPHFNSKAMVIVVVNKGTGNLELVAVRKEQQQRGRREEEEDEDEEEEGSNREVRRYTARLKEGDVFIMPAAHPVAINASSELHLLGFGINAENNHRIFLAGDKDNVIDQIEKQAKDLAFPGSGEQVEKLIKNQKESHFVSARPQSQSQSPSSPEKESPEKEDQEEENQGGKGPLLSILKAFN
Protocol: as §1

nAra h 6 = biological target: T3, nAra h 6 (peanut, UniProt Q647G9 22-145); experiment: ELISA, antigen-coated plate
T3 construct: Bought natural allergen; also called naturally extracted Ara h 6
T3 sequence (looked up): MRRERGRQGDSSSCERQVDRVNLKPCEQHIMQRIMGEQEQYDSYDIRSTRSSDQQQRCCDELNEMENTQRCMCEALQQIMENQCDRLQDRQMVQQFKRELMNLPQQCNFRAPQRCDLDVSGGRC
Protocol: as §1

nBet v 1 = biological target: T4, nBet v 1 (UniProt P15494 2-160); experiment: ELISA, antigen-coated plate
T4 sequence (looked up): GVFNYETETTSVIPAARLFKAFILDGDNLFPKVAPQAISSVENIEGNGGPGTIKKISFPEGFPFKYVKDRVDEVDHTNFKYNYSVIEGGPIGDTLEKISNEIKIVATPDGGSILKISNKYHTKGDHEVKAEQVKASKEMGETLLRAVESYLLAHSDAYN
Protocol: as §1

Peptide 1 = biological target: T5, Peptide 1 (peanut); experiment: competition ELISA, peptide in solution vs coated Ara h 2
T5 construct: 20-mer of Ara h 2, overlap of 12 with its neighbours; also called linear Ara h 2 peptide 1
T5 peptide: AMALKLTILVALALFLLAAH
Protocol: (§2) A competition ELISA was used to evaluate binding of exemplary anti-peanut antibodies of the present invention to linear Ara h 2 epitopes. Serial dilutions of linear Ara h 2 epitopes (100 μM down to 0.19 nM; peptides with a length of 20 amino acids and an overlap of 12 amino acids between the peptides) were pre-incubated with exemplary anti-peanut antibodies ([…]) for 1 hour at room temperature. The pre-incubated antibody-epitope mixtures were subsequently incubated on plates coated with full length Ara h 2 (coating overnight at 4° C. with 0.05 μg/ml Ara h 2 in PBS, followed by wash out and blocking with 2% BSA in PBS). The plates were subsequently washed and binding of MAbs to Ara h 2 was detected HRP-conjugated goat anti human Fc-gamma-specific antibody (Jackson ImmunoResearch, West Grove, Pa., USA) followed by measurement of the HRP activity using a tetramethylbenzidine substrate solution (TMB, Sigma-Aldrich Chemie GmbH, Buchs, Switzerland). As may be seen from Table 5, exemplary anti-peanut allergen antibody 32B10 binds to different linear Ara h 2 epitopes than 12G10 and 37D5.

Peptide 3 = biological target: T6, Peptide 3 (peanut); experiment: as above
T6 construct: also called linear Ara h 2 peptide 3
T6 peptide: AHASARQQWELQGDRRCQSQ
Protocol: as §2

Peptide 7 = biological target: T7, Peptide 7 (peanut); experiment: as above
T7 construct: also called linear Ara h 2 peptide 7
T7 peptide: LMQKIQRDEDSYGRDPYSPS
Protocol: as §2

Peptide 8 = biological target: T8, Peptide 8 (peanut); experiment: as above
T8 construct: also called linear Ara h 2 peptide 8
T8 peptide: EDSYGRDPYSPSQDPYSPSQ
Protocol: as §2

Peptide 12 = biological target: T9, Peptide 12 (peanut); experiment: as above
T9 construct: also called linear Ara h 2 peptide 12
T9 peptide: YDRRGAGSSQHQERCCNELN
Protocol: as §2

Peptide 13 = biological target: T10, Peptide 13 (peanut); experiment: as above
T10 construct: also called linear Ara h 2 peptide 13
T10 peptide: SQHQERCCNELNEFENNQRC
Protocol: as §2

Peptide 14 = biological target: T11, Peptide 14 (peanut); experiment: as above
T11 construct: also called linear Ara h 2 peptide 14
T11 peptide: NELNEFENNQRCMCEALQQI
Protocol: as §2

Peptide 15 = biological target: T12, Peptide 15 (peanut); experiment: as above
T12 construct: also called linear Ara h 2 peptide 15
T12 peptide: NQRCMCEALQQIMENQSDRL
Protocol: as §2

Peptide 19 = biological target: T13, Peptide 19 (peanut); experiment: as above
T13 construct: also called linear Ara h 2 peptide 19
T13 peptide: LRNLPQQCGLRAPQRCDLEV
Protocol: as §2

B1: h7G6 (antibody, V domains shown)
VH: QVQLVESGGGVVQPGRSLRLSCAASGIAFNDYTMHWVRRSPDKGLEWVAAISYGGTNKYYADSVKGRFTISRDSSKNTLFLQMDSLRVEDTAVYYCARDSGYRSLLHWGQGTLVTVSS
VL: EIVLTQSPLSLPVTPGEPASISCRSSQSLVHRNGYNYLDWYLQKPGQSPQLLIYMASKRASGVPDRFSGSGSGTEFTLKISRVEAEDVGIYYCMQALQTWTFGQGTKVEVN
notes: Recombinant human IgG; also called hMAb 7G6
B1 was tested, and the EC50 (nAra h 2) was 4.7 ng/mL, the EC50 (nAra h 1) was 1.9 ng/mL and the EC50 (nAra h 6) was 2.6 ng/mL. B1: no binding (tested: 1000 ng/ml) (nBet v 1); no binding (tested: 100 µM) (Peptide 1); no binding (tested: 100 µM) (Peptide 3). B1: no binding (tested: 100 µM) (Peptide 7); no binding (tested: 100 µM) (Peptide 8); no binding (tested: 100 µM) (Peptide 12). B1: no binding (tested: 100 µM) (Peptide 13); no binding (tested: 100 µM) (Peptide 14); no binding (tested: 100 µM) (Peptide 15). B1: no binding (tested: 100 µM) (Peptide 19).
